# Laboratory results as given in patent publication US7012128B2, “Interaction between cyclin D1 and steroid receptor co-activators and uses thereof in assays” (TopoTarget UK Limited, priority 1998, dated 2006).
# B1: cyclin D3: D-type cyclin lacking the leucine-rich motif (protein, UniProt P30281 1-292, looked up)
# G1/S-specific cyclin-D3: MELLCCEGTRHAPRAGPDPRLLGDQRVLQSLLRLEERYVPRASYFQCVQREIKPHMRKMLAYWMLEVCEEQRCEEEVFPLAMNYLDRYLSCVPTRKAQLQLLGAVCMLLASKLRETTPLTIEKLCIYTDHAVSPRQLRDWEVLVLGKLKWDLAAVIAHDFLAFILHRLSLPRDRQALVKKHAQTFLALCATDYTFAMYPPSMIATGSIGAAVQGLGACSMSGDELTELLAGITGTEVDCLRACQEQIEAALRESLREASQTSSSPAPKAPRGSSSQGPSQTSTPTDVTAIHL
# B2: cyclin D2: D-type cyclin lacking the leucine-rich motif (protein, UniProt P30279 1-289, looked up)
# G1/S-specific cyclin-D2: MELLCHEVDPVRRAVRDRNLLRDDRVLQNLLTIEERYLPQCSYFKCVQKDIQPYMRRMVATWMLEVCEEQKCEEEVFPLAMNYLDRFLAGVPTPKSHLQLLGAVCMFLASKLKETSPLTAEKLCIYTDNSIKPQELLEWELVVLGKLKWNLAAVTPHDFIEHILRKLPQQREKLSLIRKHAQTFIALCATDFKFAMYPPSMIATGSVGAAICGLQQDEEVSSLTCDALTELLAKITNTDVDCLKACQEQIEAVLLNSLQQYRQDQRDGSKSEDELDQASTPTDVRDIDL
# B3: D1: amino acids 1-202: carboxyl-terminal deletion mutant of cyclin D1 (protein, UniProt P24385 1-202, looked up, fragment)
# chain: MEHQLLCCEVETIRRAYPDANLLNDRVLRAMLKAEETCAPSVSYFKCVQKEVLPSMRKIVATWMLEVCEEQKCEEEVFPLAMNYLDRFLSLEPVKKSRLQLLGATCMFVASKMKETIPLTAEKLCIYTDNSIRPEELLQMELLLVNKLKWNLAAMTPHDFIEHFLSKMPEAEENKQIIRKHAQTFVALCATDVKFISNPPSM
# System: wild type ER
# Assay: ERE-TATA-luciferase transactivation of wild type ER in COS-7 cells
# Assay type: cell-based
# Details: COS-7, wild type ER, presence of ligand
# Description: FIG. 1. Mapping of the region of cyclin D1 required for ER-mediated transactivation. • (A) The effect of cyclin D1 deletion mutants on ER activation in the presence of ligand. The cyclin D1 derivatives used in this study are shown in the left panel; right side of Figure represents the relative capacity of the mutants to potentiate ERE-dependent transcription. ER-negative COS-7 cells were transfected with expression vectors for wild type ER (200 ng), cyclin D1 or cyclin D1 mutants (2.5 μg), an internal control §-galactosidase plasmid (0.5 μg) and an ERE-TATA-luciferase reporter (3 μg). The effect on ER transactivation of wild type cyclin D1 was set to 100%. These studies were performed in three separate experiments and expressed as mean values with standard deviation less then […]. The alignment of leucine-rich motif of ER with D-type cyclins are shown on the bottom; the leucine-rich motif in cyclin D1 is indicated as a dark box. The identifiers for the sequences shown are as follows: Cyclin D1 (SEQ ID NO:11), Estrogen receptor (SEQ ID NO:12), the Cyclin D2 (SEQ ID NO:13), and the Cyclin D3 (SEQ ID NO:14). • (B) ER activation by D-type cyclins, cyclin D1 L254/255A point mutant (D1-LALA) and SRC-1 in the presence of ligand. COS-7 cells were transfected with D-type cyclin expression vectors, cyclin D1 Leucine-to-Alanine point mutant (D1-LALA) or SRC-1 expression vector together with wild type ER expression vector, an ERE-TATA-luciferase reporter plasmid and the internal control β-galactosidase construct. Data are expressed as relative luciferase activity compared with basal ERE-luciferase activity of wild type ER and are normalized for transfection efficiencies.
# FIG. 3. Role of coactivators in cyclin D1—induced transactivation. • (A) Effect of a dominant negative form of SRC-1 (SRC1-DN) on ER transactivation. SRC1-DN encoding amino acids 1245-1441 of SRC-1 (1, 2.5 and 5 μg) was introduced by transient transfection together with wild type ER (200 ng) and was tested for its ability to modulate ERE-dependent transcription. • (B) Effect of SRCI-DN on SRC-1 and TIF 2 mediated ER transactivation. SRC-1 (3 μg) or TIF-2 (3 μg) were transfected with SRC1-DN (3 μg) and tested for ER transactivation. • (C) Effect of SRC1-DN on cyclin D1-induced transactivation of ER 1-535 mutant. Cyclin D1 was cotransfected with SRC1-DN (1, 2.5, 5 μg) and tested for its effect on an ER harboring a deletion of coactivator binding site in helix 12 (ER 1-535). • (D) Effect of SRC1-DN on cyclin D1-induced transactivation of ER L543/544A mutant. Cyclin D1 and SRC1-DN (1, 2.5, 5 gg) were transfected and tested for the activity of ER helix 12 point mutant (ER L543/544A). The transient transfections (A-C) were performed in COS-7 cells, which were maintained in DMEM with 10 nM ligand. The relative activity was calculated by normalizing to the internal control and was divided by luciferase activity of ER (mutant) in the presence of ligand. The transfection for each set of conditions were done at least in four independent experiments and expressed as average ±SD.
# To study how cyclin D1 activates ER, cyclin D1 deletion mutants were tested for their effect on ER-transactivation. COS-7 cells were transfected with cyclin D1 mutants, together with ER and a luciferase reporter gene construct driven by a minimal TATA promoter linked to an estrogen response element (ERE). […] This part of the protein is not involved in CDK interaction and is poorly conserved among the different cyclins. […] To test the relevance of this leucine-rich domain of cyclin D1 in ER activation, a cyclin D1 mutant was constructed in which leucines 254 and 255 were mutated to alanines (D1 L254/255A). This mutation in cyclin D1 is similar to the mutation in ER (ER L543/544A) that interferes with coactivator binding to AF-2 (Danielian et al., 1992). […]
row,Molecule,ER transactivation capacity
1,D1: amino acids 1-267: cyclin D1 mutant lacking the extreme carboxyl-terminus,partially retained ER activation
2,D1: amino acids 1-247: carboxyl-terminal deletion mutant of cyclin D1,lack ER transactivation capacity
3,D1: amino acids 91-295: amino-terminal deletion mutant of cyclin D1,still able to activate ER
4,B1,behaved similar-to the D1 L254/255A mutant
5,B2,behaved similar-to the D1 L254/255A mutant
6,B3,lack ER transactivation capacity

# Molecular target: T1, GST-SRC1 (361-1441) and His-tagged cyclin D1 (Homo sapiens, UniProt P24385)
# T1 construct: 6X histidine; made in house; host or cells: E. coli
# Assay: GST pull down peptide competition assay
# Assay type: binding
# Details: 0.3 μg and 3 μg peptide; Western blot with anti-cyclin D1 antibody
# Description: To ask whether the LXXLL (SEQ ID NO:6) motifs of SRC-1 are involved in cyclin D1 binding, a peptide competition experiment was performed. Peptides (0.3 μg and 3 μg) derived from the four LXXLL motifs of SRC1 were used in a GST pull down assay using GST-SRC1 (361-1441) and His-tagged cyclin D1 as described above. […] The reduction in binding was greater with 3 μg than with 0.3 μg of each of the LXXLL (SEQ ID NO:6) peptides with no reduction shown with the LXXAA (SEQ ID NO:21)mutant peptide. […] In another experiment, the ability of peptides to compete with cyclin D1 for binding to GST-SRC1 was investigated. Increasing amounts (100, 200 and 500 nM) of AASKHKQLSELLRSG (SEQ ID NO:1) (LXXLL (SEQ ID NO:6)) and AASKHKQLSEAARSG (SEQ ID NO:23) (LXXAA) (SEQ ID NO:21) peptides were used in a GST pull down assay using GST-SRC1 (361-1441) and His-tagged cycliin D1.
# GST protein, GST-SRC1 fusion protein and His-tagged cyclin D1 protein were purified as described previously (Zwijsen et al., 1997). Binding between 500 ng GST-SRC1 and 100 ng His-D1 was performed in binding buffer (50 mM NaCl, 50 mM HEPES-KOH pH 7.6, […] 0.1% (w/v) NP40, 0.1 mM PMSF and 0.5% charcoal-stripped serum) bound to glutathione-sepharose for 1 hour at 4° C. The beads were washed three times and bound proteins were eluted by boiling for 10 minutes in sample buffer and separated on 10% SDS-PAGE. The binding of His-cyclin D1 to GST-SRC1 was detected by Western blot analysis using monoclonal antibodies directed against cyclin D1 (DCS-6, Neomarkers). For testing a ternary complex, a baculovirus-produced ER (750 ng, Pan Vera) was added to GST-SRC1 (500 ng) and His-D1 (100 ng) in the presence or absence of 1 μM 17β-estradiol using similar conditions as described above. In Western blot analysis monoclonal antibodies directed against cyclin D1 (DCS-6, Neomarkers) and ER (LH2, Novocastra) were used.
# For the peptide inhibition assay using the peptides shown in FIG. 4(B), 150 ng GST/GST-SRC1 and 50 ng His-tagged cyclin D1 were used. […]
# T1 sequence (P24385 whole entry): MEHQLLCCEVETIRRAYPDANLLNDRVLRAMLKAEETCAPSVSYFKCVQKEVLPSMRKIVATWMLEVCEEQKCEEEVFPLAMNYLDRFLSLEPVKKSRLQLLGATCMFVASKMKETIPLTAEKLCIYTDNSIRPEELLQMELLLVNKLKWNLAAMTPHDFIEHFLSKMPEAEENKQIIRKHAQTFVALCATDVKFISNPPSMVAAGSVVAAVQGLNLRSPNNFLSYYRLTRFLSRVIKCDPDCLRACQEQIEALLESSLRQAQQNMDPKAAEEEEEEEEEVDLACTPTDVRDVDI
row,interference with binding of cyclin D1 to SRC-1,Molecule
1,best competitor,P3: peptide which corresponds to the third of the three centrally located LXXLL motifs of SRC-1 (KDHQLLRYLLDKDE; listed as Homo sapiens)
2,no reduction,"LXXAA mutant peptide: LXXAA mutant control peptide of the SRC-1 peptide competition experiment, FIG. 4B (PQAQQKSLQQAAT; listed as Homo sapiens) [reference compound]"

# Same assay, conditions: 100, 200 and 500 nM peptide
row,Molecule,competition with cyclin D1 for binding to GST-SRC1
1,AASKHKQLSELLRSG [LXXLL peptide derived from p300 amino acid 74-88],Binding was reduced with increasing concentration
